# Assay results as given in patent US20260242478A1 (published 2026).
# Where no end group is shown, it is not given here.
# Tests used:
# [1] = target: T1, Anti-PSMA Fab (SEQ ID NOs: 19, 20); experiment: phage binding ELISA; biotinylated PSMA Fab on neutravidin plate, bound phage detected with anti-M13-HRP
# T1 construct: Biotinylated and captured on neutravidin coated plates in the phage ELISA; also called 006 PSMA Fab
# Experimental: (§1) Clonal phage were harvested as crude supernatants and screened via standard ELISAs. […] Prior to the addition of clonal phage. wells were incubated with blocking buffer and PSMA antigen or blocking buffer alone. Without washing or aspirating, clonal phage supernatants were then added to the wells and incubated for a short time. Wells were then washed followed by detection of bound phage using a horse radish conjugated anti-M13 antibody.
# [2] = target: T1, Anti-PSMA Fab (SEQ ID NOs: 19, 20); experiment: phage binding ELISA; PSMA Fab on plate pre-incubated with PSMA antigen as competitor, anti-M13-HRP detection
# Experimental: as §1
# [3] = target: T2, Anti-PSMA Fab (SEQ ID NOs: 19, 20); experiment: phage binding ELISA; biotinylated PSMA Fab on neutravidin plate, clonal phage, anti-M13-HRP detection
# T2 construct: Biotinylated PSMA Fab captured on neutravidin coated plates in the phage ELISA; also called 006 PSMA Fab
# Experimental: as §1
# [4] = target: T2, Anti-PSMA Fab (SEQ ID NOs: 19, 20); experiment: phage binding ELISA; Fab-coated wells pre-incubated with PSMA antigen as competitor, anti-M13-HRP detection;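 also: clonal phage supernatants screened, with reference wells given blocking buffer only (no PSMA antigen) before phage were added for a brief incubation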
# Experimental: as §1
# [5] = target: T3, Anti-PSMA Fab (SEQ ID NOs: 19, 20); experiment: phage binding ELISA; biotinylated PSMA Fab on neutravidin plates, clonal phage supernatant, anti-M13 HRP detection
# T3 construct: Biotinylated and captured on neutravidin coated plates in the phage ELISA; also called 006 PSMA Fab
# Experimental: as §1
# [6] = target: T3, Anti-PSMA Fab (SEQ ID NOs: 19, 20); experiment: phage binding ELISA; Fab-coated wells pre-incubated with PSMA antigen as competitor, anti-M13 HRP detection
# Experimental: as §1
# [7] = target: T4, Anti-PSMA Fab (SEQ ID NOs: 19, 20); experiment: phage ELISA; biotinylated PSMA Fab on neutravidin plate, clonal phage supernatant, anti-M13 HRP detection;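 also: wells preincubated with PSMA antigen in blocking buffer or with blocking buffer only before clonal phage were added for a short incubation, then bound phage detected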
# T4 construct: In the phage ELISA the Fab was biotinylated and captured on neutravidin coated plates; also called 006 PSMA Fab
# Experimental: as §1
# [8] = target: T4, Anti-PSMA Fab (SEQ ID NOs: 19, 20); experiment: phage ELISA; biotinylated PSMA Fab on neutravidin plate pre-incubated with PSMA antigen (competitor), anti-M13 HRP detection
# Experimental: as §1
Binder,"Anti-PSMA Fab (SEQ ID NOs: 19, 20) signal [1]",Anti-PSMA Fab signal in the presence of PSMA [2],"Anti-PSMA Fab (SEQ ID NOs: 19, 20) signal [3]",Anti-PSMA Fab signal in the presence of PSMA [4],further results
"VEKWCIPSWMCAEV (cysteine pairing not given here; also: fused to phage pIII, pIII sequence and linker not given here) [Phage-2031]",1.81,0.086,,,
"QLNWCIPEWMCQGL (Peptide-180 library clone, tested as clonal phage supernatant) [Phage-2022]",,,1.82,0.124,
EVHRCIPAWMCTTP (tested as clonal phage supernatant) [Phage-2046],,,,,Anti-PSMA Fab signal [5]: 1.79; Anti-PSMA Fab signal in the presence of PSMA [6]: 0.0934
IIKWCIPEWMCYMH [Phage-2028],1.81,0.104,,,
"ELKRCTPSWMCEGI (Peptide-180 library clone, tested as clonal phage supernatant) [Phage-2025]",,,1.82,0.059,
DIKWCIPPWMCQVE [Phage-2032],1.81,0.0691,,,
SLNWCIPEWMCEGF [Phage-2035],1.8,0.0793,,,
"LQKLCIPEWMCLNM (cysteine pairing not given here; also: fused to phage pIII, pIII sequence and linker not given here, Peptide-180 library clone) [Phage-2010]",,,,,"Phage binding ELISA, Anti-PSMA Fab signal [7]: 1.84; Phage binding ELISA, Anti-PSMA Fab signal in the presence of PSMA [8]: 0.0655"
EAKWCIPAWMCEDA [Phage-2036],1.8,0.0685,,,
FEKWCIPSWMCENA [Phage-2030],1.81,0.0725,,,
"TEIWCIPPWMCDGQ (Peptide-180 library clone, tested as clonal phage supernatant) [Phage-2021]",,,1.82,0.0686,
"EVKWCTPEWMCAFL (cysteine pairing not given here; also: fused to phage pIII, pIII sequence and linker not given here, tested as clonal phage supernatant) [Phage-2044]",,,,,Anti-PSMA Fab signal [5]: 1.79; Anti-PSMA Fab signal in the presence of PSMA [6]: 0.0578
"VAKWCTPPWMCAWL (cysteine pairing not given here; also: fused to phage pIII, pIII sequence and linker not given here, tested as clonal phage supernatant) [Phage-2048]",,,,,Anti-PSMA Fab signal [5]: 1.78; Anti-PSMA Fab signal in the presence of PSMA [6]: 0.197
EAIWCVPKWMCEGM (tested as clonal phage supernatant) [Phage-2050],,,,,Anti-PSMA Fab signal [5]: 1.78; Anti-PSMA Fab signal in the presence of PSMA [6]: 0.0786
"LDKWCTPSWMCYGM (Peptide-180 library clone, tested as clonal phage supernatant) [Phage-2018]",,,1.83,0.106,
ELQRCTPWWMCFDV [Phage-2027],1.81,0.0689,,,
VMPWCIPQWMCVGE (tested as clonal phage supernatant) [Phage-2049],,,,,Anti-PSMA Fab signal [5]: 1.78; Anti-PSMA Fab signal in the presence of PSMA [6]: 0.0873
IDKWCIPMWMCEMS (tested as clonal phage supernatant) [Phage-2045],,,,,Anti-PSMA Fab signal [5]: 1.79; Anti-PSMA Fab signal in the presence of PSMA [6]: 0.0708
"VVQLCSPVWMCEGF (Peptide-180 library clone, tested as clonal phage supernatant) [Phage-2015]",,,1.83,0.086,
"DTHMCRPLWMCTGL (cysteine pairing not given here; also: fused to phage pIII, pIII sequence and linker not given here, Peptide-180 library clone) [Phage-2011]",,,,,"Phage binding ELISA, Anti-PSMA Fab signal [7]: 1.84; Phage binding ELISA, Anti-PSMA Fab signal in the presence of PSMA [8]: 0.0778"
"VIKLCSPPWMCIGL (Peptide-180 library clone, tested as clonal phage supernatant) [Phage-2020]",,,1.82,0.0946,

Binder,"Anti-PSMA Fab (SEQ ID NOs: 19, 20) signal [1]",Anti-PSMA Fab signal in the presence of PSMA [2],"Anti-PSMA Fab (SEQ ID NOs: 19, 20) signal [3]",Anti-PSMA Fab signal in the presence of PSMA [4],further results
QMKWCTPEWMCVGM [Phage-2041],1.79,0.0767,,,
"PIRLCIPEWMCEMV (Peptide-180 library clone, tested as clonal phage supernatant) [Phage-2016]",,,1.83,0.0575,
"LEKWCTPLWMCVGI (Peptide-180 library clone, tested as clonal phage supernatant) [Phage-2026]",,,1.82,0.078,
IVKWCTPEWMCVGF [Phage-2034],1.8,0.154,,,
"PERWCIPVWMCESG (Peptide-180 library clone, tested as clonal phage supernatant) [Phage-2014]",,,1.83,0.0731,
MDHWCTPPWMCEGW (tested as clonal phage supernatant) [Phage-2042],,,,,Anti-PSMA Fab signal [5]: 1.79; Anti-PSMA Fab signal in the presence of PSMA [6]: 0.0642
"MVKWCFPEWMCWTD (Peptide-180 library clone, tested as clonal phage supernatant) [Phage-2017]",,,1.83,0.136,
WPMLCIPEWMCDGL [Phage-2033],1.8,0.0977,,,
"MERWCKPAWMCADM (cysteine pairing not given here; also: fused to phage pIII, pIII sequence and linker not given here) [Phage-2038]",1.8,0.0809,,,
"IVKWCTPPWMCTIY (Peptide-180 library clone, tested as clonal phage supernatant) [Phage-2019]",,,1.83,0.153,
"VQKWCIPAWMCDYV (Peptide-180 library clone, tested as clonal phage supernatant) [Phage-2024]",,,1.82,0.0734,
DLPWCIPAWMCMGL [Phage-2039],1.8,0.0665,,,
"GEKWCIPPWMCITN (Peptide-180 library clone, tested as clonal phage supernatant) [Phage-2012]",,,1.84,0.0697,
VPKWCTPSWMCEST (tested as clonal phage supernatant) [Phage-2043],,,,,Anti-PSMA Fab signal [5]: 1.79; Anti-PSMA Fab signal in the presence of PSMA [6]: 0.0787
"LEKWCIPAWMCEVF (Peptide-180 library clone, tested as clonal phage supernatant) [Phage-2013]",,,1.84,0.0967,
VDHWCTPAWMCDGF (tested as clonal phage supernatant) [Phage-2047],,,,,Anti-PSMA Fab signal [5]: 1.78; Anti-PSMA Fab signal in the presence of PSMA [6]: 0.106
ASPMCIPEWMCSGV [Phage-2037],1.8,0.0687,,,
EGKWCIPPWMCERN [Phage-2029],1.81,0.0762,,,
VPKWCTPAWMCNWN (tested as clonal phage supernatant) [Phage-2051],,,,,Anti-PSMA Fab signal [5]: 1.78; Anti-PSMA Fab signal in the presence of PSMA [6]: 0.12
"ALMWCIPQWMCQDQ (Peptide-180 library clone, tested as clonal phage supernatant) [Phage-2023]",,,1.82,0.102,
VHKWCIPSWMCEAP [Phage-2040],1.79,0.0914,,,
